Source: paper PMC8262884
Values belong to the binder of their own block, whether it stands above or below them.

Legend:
[1] = biological target: native phosphoenolpyruvate carboxykinase (PEPCK) (Trypanosoma brucei (endogenous in EATRO1125.T7T procyclic cells))
[2] = biological target: TY-tagged phosphoenolpyruvate carboxykinase (TY-PEPCK) (Trypanosoma brucei); assay: proximity ligation; Duolink In Situ Red mouse/rabbit kit on PFA-fixed, Triton X-100-permeabilized Δpepck/TY-PEPCK/UGP-MYC.i procyclic cells; rabbit anti-MYC and mouse anti-TY1; cell lines with only one tagged protein as negative controls

glycosomal import of the tagged UGP (Western blot of glycosomal and cytosolic fractions), against native UGP in parental cells [1]: 9 fold
B1: TY-UGP_(1-485) (enzyme)
chain: MPLNPPSAFSGAALACLEKMQASGVEEKCIHIFLIQHALVRKGETGYIPEKSISPVESLPFLQGIETKGENTALLRQAVVLKLNGGLGTGMGLNGPKSLLQVKNGQTFLDFTALQLEHFRQVRNCNVPFMLMNSFSTSGETKNFLRKYPTLYEVFDSDIELMQNRVPKIRQDNFFPVTYEADPTCEWVPPGHGDVYTVLYSSGKLDYLLGKGYRYMFISNGDNLGATLDVRLLDYMHEKQLGFLMEVCRRTESDKKGGHLAYKDVIDETTGQTRRRFVLRESAQCPKEDEDSFQNIAKHCFFNTNNIWINLMELKKMMDEQLGVLRLPVMRNPKTVNPQDSQSTKVYQLEVAMGAAISLFDRSEAVVVPRERFAPVKTCSDLLALRSDAYQVTEDQRLVLCEERNGKPPAIDLDGEHYKMIDGFEKLVKGGVPSLRQCTSLTVRGLVEFGADVSVRGNVVIKNLKEEPLIIGSGRVLDNEVVVVE

percent of PLA-positive cells [2]: 62%
B2: MYC-tagged UDP-glucose pyrophosphorylase (UGP-MYC) (enzyme)
chain: B1 chain
